# According to US20220204580A1 (AstraZeneca / MedImmune, published 2022):
# Numbered stars: 1 amine (or outer) side, 2 acyl side, 3 side chain; on linkers, the order of the positions; unused ones are H or OH. Bridge positions count the residues as written; N and C are the ends. Square brackets hold non-standard residues; d marks the D form. Side chains are listed from the residue outwards. Ends that are not written are not given here. * marks the point of attachment. C18 diacid = O=C(O)CCCCCCCCCCCCCCCCC(=O)*; γGlu = O=C(O)[C@H](CCC(=O)[*:2])N[*:1]; Aib = CC(C)(N)C(=O)O
# T1: human calcitonin receptor (human, UniProt P30988 25-474)
# T1 sequence (looked up): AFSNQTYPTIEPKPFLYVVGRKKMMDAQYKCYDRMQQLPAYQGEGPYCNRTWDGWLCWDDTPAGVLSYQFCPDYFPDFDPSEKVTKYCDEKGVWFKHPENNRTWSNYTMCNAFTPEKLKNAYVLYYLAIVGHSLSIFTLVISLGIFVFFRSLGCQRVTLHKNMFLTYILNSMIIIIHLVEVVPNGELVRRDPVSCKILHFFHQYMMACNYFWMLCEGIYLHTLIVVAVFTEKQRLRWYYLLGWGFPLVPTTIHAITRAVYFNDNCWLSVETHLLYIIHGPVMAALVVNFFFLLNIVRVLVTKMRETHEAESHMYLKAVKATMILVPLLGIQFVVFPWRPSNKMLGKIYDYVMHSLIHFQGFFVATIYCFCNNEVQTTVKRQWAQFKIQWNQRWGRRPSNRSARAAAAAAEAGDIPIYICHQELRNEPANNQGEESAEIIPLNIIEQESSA
# T2: human amylin receptor (calcitonin receptor co-expressed with receptor activity modifying protein, RAMP3) (human, UniProt P30988 25-474; O60896 24-148)
# T2 sequence (looked up) 1: T1 sequence (looked up)
# T2 sequence (looked up) 2: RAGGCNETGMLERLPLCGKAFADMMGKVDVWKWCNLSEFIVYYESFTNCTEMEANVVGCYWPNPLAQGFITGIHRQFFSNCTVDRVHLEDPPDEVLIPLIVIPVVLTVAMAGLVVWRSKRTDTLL
# B1: Peptide 50 (SEQ ID NO: 50) (peptide)
# peptide: K([γGlu-γGlu-C18 diacid])CNTATCATQRLANFLRHSS[Aib]NFGPILPPTEVGSNTY-NH2
# modifications: disulfide 2-7; N-terminus assumed
# SMILES: CC[C@H](C)[C@H](NC(=O)[C@@H]1CCCN1C(=O)CNC(=O)[C@H](Cc1ccccc1)NC(=O)[C@H](CC(N)=O)NC(=O)C(C)(C)NC(=O)[C@H](CO)NC(=O)[C@H](CO)NC(=O)[C@H](Cc1c[nH]cn1)NC(=O)[C@H](CCCNC(=N)N)NC(=O)[C@H](CC(C)C)NC(=O)[C@H](Cc1ccccc1)NC(=O)[C@H](CC(N)=O)NC(=O)[C@H](C)NC(=O)[C@H](CC(C)C)NC(=O)[C@H](CCCNC(=N)N)NC(=O)[C@H](CCC(N)=O)NC(=O)[C@@H](NC(=O)[C@H](C)NC(=O)[C@@H]1CSSC[C@H](NC(=O)[C@@H](N)CCCCNC(=O)CC[C@H](NC(=O)CC[C@H](NC(=O)CCCCCCCCCCCCCCCCC(=O)O)C(=O)O)C(=O)O)C(=O)N[C@@H](CC(N)=O)C(=O)N[C@@H]([C@@H](C)O)C(=O)N[C@@H](C)C(=O)N[C@@H]([C@@H](C)O)C(=O)N1)[C@@H](C)O)C(=O)N[C@@H](CC(C)C)C(=O)N1CCC[C@H]1C(=O)N1CCC[C@H]1C(=O)N[C@H](C(=O)N[C@@H](CCC(=O)O)C(=O)N[C@H](C(=O)NCC(=O)N[C@@H](CO)C(=O)N[C@@H](CC(N)=O)C(=O)N[C@H](C(=O)N[C@@H](Cc1ccc(O)cc1)C(N)=O)[C@@H](C)O)C(C)C)[C@@H](C)O
# B2: Peptide 52 (SEQ ID NO: 52) (peptide)
# peptide: K([γGlu-C18 diacid])KCNTATCATQRLANFLSHSS[Aib]NFGPILPPTRVGSNTY-NH2
# modifications: disulfide 3-8; N-terminus assumed
# SMILES: CC[C@H](C)[C@H](NC(=O)[C@@H]1CCCN1C(=O)CNC(=O)[C@H](Cc1ccccc1)NC(=O)[C@H](CC(N)=O)NC(=O)C(C)(C)NC(=O)[C@H](CO)NC(=O)[C@H](CO)NC(=O)[C@H](Cc1c[nH]cn1)NC(=O)[C@H](CO)NC(=O)[C@H](CC(C)C)NC(=O)[C@H](Cc1ccccc1)NC(=O)[C@H](CC(N)=O)NC(=O)[C@H](C)NC(=O)[C@H](CC(C)C)NC(=O)[C@H](CCCNC(=N)N)NC(=O)[C@H](CCC(N)=O)NC(=O)[C@@H](NC(=O)[C@H](C)NC(=O)[C@@H]1CSSC[C@H](NC(=O)[C@H](CCCCN)NC(=O)[C@@H](N)CCCCNC(=O)CC[C@H](NC(=O)CCCCCCCCCCCCCCCCC(=O)O)C(=O)O)C(=O)N[C@@H](CC(N)=O)C(=O)N[C@@H]([C@@H](C)O)C(=O)N[C@@H](C)C(=O)N[C@@H]([C@@H](C)O)C(=O)N1)[C@@H](C)O)C(=O)N[C@@H](CC(C)C)C(=O)N1CCC[C@H]1C(=O)N1CCC[C@H]1C(=O)N[C@H](C(=O)N[C@@H](CCCNC(=N)N)C(=O)N[C@H](C(=O)NCC(=O)N[C@@H](CO)C(=O)N[C@@H](CC(N)=O)C(=O)N[C@H](C(=O)N[C@@H](Cc1ccc(O)cc1)C(N)=O)[C@@H](C)O)C(C)C)[C@@H](C)O
# B3: Peptide 49 (SEQ ID NO: 49) (peptide)
# peptide: K([γGlu-γGlu-C18 diacid])CNTATCATQRLANFLVHSS[Aib]NFGPILPPTEVGSNTY-NH2
# modifications: disulfide 2-7; N-terminus assumed
# SMILES: CC[C@H](C)[C@H](NC(=O)[C@@H]1CCCN1C(=O)CNC(=O)[C@H](Cc1ccccc1)NC(=O)[C@H](CC(N)=O)NC(=O)C(C)(C)NC(=O)[C@H](CO)NC(=O)[C@H](CO)NC(=O)[C@H](Cc1c[nH]cn1)NC(=O)[C@@H](NC(=O)[C@H](CC(C)C)NC(=O)[C@H](Cc1ccccc1)NC(=O)[C@H](CC(N)=O)NC(=O)[C@H](C)NC(=O)[C@H](CC(C)C)NC(=O)[C@H](CCCNC(=N)N)NC(=O)[C@H](CCC(N)=O)NC(=O)[C@@H](NC(=O)[C@H](C)NC(=O)[C@@H]1CSSC[C@H](NC(=O)[C@@H](N)CCCCNC(=O)CC[C@H](NC(=O)CC[C@H](NC(=O)CCCCCCCCCCCCCCCCC(=O)O)C(=O)O)C(=O)O)C(=O)N[C@@H](CC(N)=O)C(=O)N[C@@H]([C@@H](C)O)C(=O)N[C@@H](C)C(=O)N[C@@H]([C@@H](C)O)C(=O)N1)[C@@H](C)O)C(C)C)C(=O)N[C@@H](CC(C)C)C(=O)N1CCC[C@H]1C(=O)N1CCC[C@H]1C(=O)N[C@H](C(=O)N[C@@H](CCC(=O)O)C(=O)N[C@H](C(=O)NCC(=O)N[C@@H](CO)C(=O)N[C@@H](CC(N)=O)C(=O)N[C@H](C(=O)N[C@@H](Cc1ccc(O)cc1)C(N)=O)[C@@H](C)O)C(C)C)[C@@H](C)O
# B4: Peptide 51 (SEQ ID NO: 51) (peptide)
# peptide: K([γGlu-C18 diacid])KCNTATCATQRLANFLSHSS[Aib]NFGPILPPTHVGSNTY-NH2
# modifications: disulfide 3-8; N-terminus assumed
# SMILES: CC[C@H](C)[C@H](NC(=O)[C@@H]1CCCN1C(=O)CNC(=O)[C@H](Cc1ccccc1)NC(=O)[C@H](CC(N)=O)NC(=O)C(C)(C)NC(=O)[C@H](CO)NC(=O)[C@H](CO)NC(=O)[C@H](Cc1c[nH]cn1)NC(=O)[C@H](CO)NC(=O)[C@H](CC(C)C)NC(=O)[C@H](Cc1ccccc1)NC(=O)[C@H](CC(N)=O)NC(=O)[C@H](C)NC(=O)[C@H](CC(C)C)NC(=O)[C@H](CCCNC(=N)N)NC(=O)[C@H](CCC(N)=O)NC(=O)[C@@H](NC(=O)[C@H](C)NC(=O)[C@@H]1CSSC[C@H](NC(=O)[C@H](CCCCN)NC(=O)[C@@H](N)CCCCNC(=O)CC[C@H](NC(=O)CCCCCCCCCCCCCCCCC(=O)O)C(=O)O)C(=O)N[C@@H](CC(N)=O)C(=O)N[C@@H]([C@@H](C)O)C(=O)N[C@@H](C)C(=O)N[C@@H]([C@@H](C)O)C(=O)N1)[C@@H](C)O)C(=O)N[C@@H](CC(C)C)C(=O)N1CCC[C@H]1C(=O)N1CCC[C@H]1C(=O)N[C@H](C(=O)N[C@@H](Cc1c[nH]cn1)C(=O)N[C@H](C(=O)NCC(=O)N[C@@H](CO)C(=O)N[C@@H](CC(N)=O)C(=O)N[C@H](C(=O)N[C@@H](Cc1ccc(O)cc1)C(N)=O)[C@@H](C)O)C(C)C)[C@@H](C)O
# B5: Peptide 47 (SEQ ID NO: 47) (peptide)
# peptide: K([γGlu-C18 diacid])KCNTATCATQRLAHFLVHSS[Aib]NFGPILPPTNVGSETY-NH2
# modifications: disulfide 3-8; N-terminus assumed
# SMILES: CC[C@H](C)[C@H](NC(=O)[C@@H]1CCCN1C(=O)CNC(=O)[C@H](Cc1ccccc1)NC(=O)[C@H](CC(N)=O)NC(=O)C(C)(C)NC(=O)[C@H](CO)NC(=O)[C@H](CO)NC(=O)[C@H](Cc1c[nH]cn1)NC(=O)[C@@H](NC(=O)[C@H](CC(C)C)NC(=O)[C@H](Cc1ccccc1)NC(=O)[C@H](Cc1c[nH]cn1)NC(=O)[C@H](C)NC(=O)[C@H](CC(C)C)NC(=O)[C@H](CCCNC(=N)N)NC(=O)[C@H](CCC(N)=O)NC(=O)[C@@H](NC(=O)[C@H](C)NC(=O)[C@@H]1CSSC[C@H](NC(=O)[C@H](CCCCN)NC(=O)[C@@H](N)CCCCNC(=O)CC[C@H](NC(=O)CCCCCCCCCCCCCCCCC(=O)O)C(=O)O)C(=O)N[C@@H](CC(N)=O)C(=O)N[C@@H]([C@@H](C)O)C(=O)N[C@@H](C)C(=O)N[C@@H]([C@@H](C)O)C(=O)N1)[C@@H](C)O)C(C)C)C(=O)N[C@@H](CC(C)C)C(=O)N1CCC[C@H]1C(=O)N1CCC[C@H]1C(=O)N[C@H](C(=O)N[C@@H](CC(N)=O)C(=O)N[C@H](C(=O)NCC(=O)N[C@@H](CO)C(=O)N[C@@H](CCC(=O)O)C(=O)N[C@H](C(=O)N[C@@H](Cc1ccc(O)cc1)C(N)=O)[C@@H](C)O)C(C)C)[C@@H](C)O
# B6: Peptide 46 (SEQ ID NO: 46) (peptide)
# peptide: K([γGlu-C18 diacid])KCNTATCATQRLAHFLVHSS[Aib]NFGPILPPTNVGSNTY-NH2
# modifications: disulfide 3-8; N-terminus assumed
# SMILES: CC[C@H](C)[C@H](NC(=O)[C@@H]1CCCN1C(=O)CNC(=O)[C@H](Cc1ccccc1)NC(=O)[C@H](CC(N)=O)NC(=O)C(C)(C)NC(=O)[C@H](CO)NC(=O)[C@H](CO)NC(=O)[C@H](Cc1c[nH]cn1)NC(=O)[C@@H](NC(=O)[C@H](CC(C)C)NC(=O)[C@H](Cc1ccccc1)NC(=O)[C@H](Cc1c[nH]cn1)NC(=O)[C@H](C)NC(=O)[C@H](CC(C)C)NC(=O)[C@H](CCCNC(=N)N)NC(=O)[C@H](CCC(N)=O)NC(=O)[C@@H](NC(=O)[C@H](C)NC(=O)[C@@H]1CSSC[C@H](NC(=O)[C@H](CCCCN)NC(=O)[C@@H](N)CCCCNC(=O)CC[C@H](NC(=O)CCCCCCCCCCCCCCCCC(=O)O)C(=O)O)C(=O)N[C@@H](CC(N)=O)C(=O)N[C@@H]([C@@H](C)O)C(=O)N[C@@H](C)C(=O)N[C@@H]([C@@H](C)O)C(=O)N1)[C@@H](C)O)C(C)C)C(=O)N[C@@H](CC(C)C)C(=O)N1CCC[C@H]1C(=O)N1CCC[C@H]1C(=O)N[C@H](C(=O)N[C@@H](CC(N)=O)C(=O)N[C@H](C(=O)NCC(=O)N[C@@H](CO)C(=O)N[C@@H](CC(N)=O)C(=O)N[C@H](C(=O)N[C@@H](Cc1ccc(O)cc1)C(N)=O)[C@@H](C)O)C(C)C)[C@@H](C)O
# Target: T1, human calcitonin receptor
# Assay: cell-based or functional assay
row,Binder,EC50 (cAMP production) [nM]
1,B1,18.9
2,B2,1.1
3,B3,4.14
4,B4,1.65
5,B5,0.468
6,B6,0.362

# Target: T2, human amylin receptor (calcitonin …)
# Assay: cell-based or functional assay
Binder,EC50 (cAMP production) [nM],Ratio (EC50 hCTR / EC50 hAMYR3)
B1,0.349,54
B2,0.089,12
B3,0.334,12
B4,0.126,13
B5,0.218,2
B6,0.109,3
